Data taken from patent US20250339554A1 (BROAD INSTITUTE, published 2025).

B1: PNMA7B (other)
chain: MASITACVGNSRQQNAPLPPWAHSMLRSLGRSLCPLVVKMAERNMKLFSGRVVPAQGKETFENWLIQVNEVLPDWSMSEEEKLKRLMKTLRGPAREVMRLLQAANPNLSVADFLRAMKLVFGESESSVTAHGKFFNTLQAQGEKASLYVIRLEVQLQNAIQAGILAEKDANQTRLQQLLLGAELNRDLRFRLKHLLRMYANKQERLPNFLELIKMIREEEDWDDAFIKRKRPKRSEPIMERAASPVAFQGAQPIAISSADCNCNVIEIDDTLDDSDEDVILVVSLYPSLTPTGAPPFRGRARPLDQVLVIDSPNNSGAQSLSTSGGSGYKNDGPGNIRRARKRKYTTRCSYCGEEGHSKETCDNESNKAQVFENLIITLQELTHTEERSKEVPGEHSDASEPQ
notes: Capsids were purified from E. coli; also called ZCCHC18
B2: PNMA5 (other)
chain: MALTLLEDWCKGMDMDPRKALLIVGIPMECSEVEIQDTVKAGLQPLCAYRVLGRMFRREDNAKAVFIELADTVNYTTLPSHIPGKGGSWEVVVKPRNPDDEFLSRLNYFLKDEGRSMTDVARALGCCSLPAESLDAEVMPQVRSPPLEPPKESMWYRKLKVFSGTASPSPGEETFEDWLEQVTEIMPIWQVSEVEKRRRLLESLRGPALSIMRVLQANNDSITVEQCLDALKQIFGDKEDFRASQFRFLQTSPKIGEKVSTFLLRLEPLLQKAVHKSPLSVRSTDMIRLKHLLARVAMTPALRGKLELLDQRGCPPNFLELMKLIRDEEEWENTEAVMKNKEKPSGRGRGASGRQARAEASVSAPQATVQARSFSDSSPQTIQGGLPPLVKRRRLLGSESTRGEDHGQATYPKAENQTPGREGPQAAGEELGNEAGAGAMSHPKPWET
notes: Capsids were purified from E. coli
B3: PNMA7A (other)
chain: MASIIARVGNSRRLNAPLPPWAHSMLRSLGRSLGPIMASMADRNMKLFSGRVVPAQGEETFENWLTQVNGVLPDWNMSEEEKLKRLMKTLRGPAREVMRVLQATNPNLSVADFLRAMKLVFGESESSVTAHGKFFNTLQAQGEKASLYVIRLEVQLQNAIQAGIIAEKDANRTRLQQLLLGGELSRDLRLRLKDFLRMYANEQERLPNFLELIRMVREEEDWDDAFIKRKRPKRSESMVERAVSPVAFQGSPPIVIGSADCNVIEIDDTLDDSDEDVILVESQDPPLPSWGAPPLRDRARPQDEVLVIDSPHNSRAQFPSTSGGSGYKNNGPGEMRRARKRKHTIRCSYCGEEGHSKETCDNESDKAQVFENLIITLQELTHTEMERSRVAPGEYNDFSEPL
notes: also called ZCCHC12
B4: PNMA6A (other)
chain: MAVTMLQDWCRWMGVNARRGLLILGIPEDCDDAEFQESLEAALRPMGHFTVLGKAFREEDNATAALVELDREVNYALVPREIPGTGGPWNVVFVPRCSGEEFLGLGRVFHFPEQEGQMVESVAGALGVGLRRVCWLRSIGQAVQPWVEAVRCQSLGVFSGRDQPAPGEESFEVWLDHTTEMLHVWQGVSERERRRRLLEGLRGTALQLVHALLAENPARTAQDCLAALAQVFGDNESQATIRVKCLTAQQQSGERLSAFVLRLEVLLQKAMEKEALARASADRVRLRQMLTRAHLTEPLDEALRKLRMAGRSPSFLEMLGLVRESEAWEASLARSVRAQTQEGAGARAGAQAVARASTKVEAVPGGPGREPEGLLQAGGQEAEELLQEGLKPVLEECDN
B5: PNMA2 (other)
chain: MALALLEDWCRIMSVDEQKSLMVTGIPADFEEAEIQEVLQETLKSLGRYRLLGKIFRKQENANAVLLELLEDTDVSAIPSEVQGKGGVWKVIFKTPNQDTEFLERLNLFLEKEGQTVSGMFRALGQEGVSPATVPCISPELLAHLLGQAMAHAPQPLLPMRYRKLRVFSGSAVPAPEEESFEVWLEQATEIVKEWPVTEAEKKRWLAESLRGPALDLMHIVQADNPSISVEECLEAFKQVFGSLESRRTAQVRYLKTYQEEGEKVSAYVLRLETLLRRAVEKRAIPRRIADQVRLEQVMAGATLNQMLWCRLRELKDQGPPPSFLELMKVIREEEEEEASFENESIEEPEERDGYGRWNHEGDD
notes: Self-assembling capsid protein; It was tested as particles from HEK293 supernatant (HA-tag pulldown) and as monomers and capsids assembled in vitro
B6: PNMA1 (other)
chain: MAMTLLEDWCRGMDVNSQRALLVWGIPVNCDEAEIEETLQAAMPQVSYRMLGRMFWREENAKAALLELTGAVDYAAIPREMPGKGGVWKVLFKPPTSDAEFLERLHLFLAREGWTVQDVARVLGFQNPTPTPGPEMPAEMLNYILDNVIQPLVESIWYKRLTLFSGRDIPGPGEETFDPWLEHTNEVLEEWQVSDVEKRRRLMESLRGPAADVIRILKSNNPAITTAECLKALEQVFGSVESSRDAQIKFLNTYQNPGEKLSAYVIRLEPLLQKVVEKGAIDKDNVNQARLEQVIAGANHSGAIRRQLWLTGAGEGPAPNLFQLLVQIREEEAKEEEEEAEATLLQLGLEGHF
notes: Self-assembling capsid protein

What was measured:
[1] = target: the molecule itself; test: TEM of capsids purified from E. coli; self-assembly
[2] = target: the molecule itself; test: electron microscopy; self-assembly
[3] = target: the molecule itself; test: SEC, iodixanol gradient and TEM of particles from HEK293 supernatant; self-assembly into capsids
[4] = target: the molecule itself; test: size-exclusion chromatography of purified PNMA1; self-assembly

| Protein | binding result [1] | binding result [2] | other results |
| --- | --- | --- | --- |
| B1 | binds | – | – |
| B2 | binds | – | – |
| B3 | – | binds | – |
| B4 | – | binds | – |
| B5 | – | – | binding result [3]: binds |
| B6 | – | – | binding result [4]: binds |
